We go through two variants from IntAct's records for PubMed 14596906.

B1: Formin-binding protein 1 (Homo sapiens), Q96RU3 (parent)
chain: MSWGTELWDQFDNLEKHTQWGIDILEKYIKFVKERTEIELSYAKQLRNLSKKYQPKKNSKEEEEYKYTSCKAFISNLNEMNDYAGQHEVISENMASQIIVDLARYVQELKQERKSNFHDGRKAQQHIETCWKQLESSKRRFERDCKEADRAQQYFEKMDADINVTKADVEKARQQAQIRHQMAEDSKADYSSILQKFNHEQHEYYHTHIPNIFQKIQEMEERRIVRMGESMKTYAEVDRQVIPIIGKCLDGIVKAAESIDQKNDSQLVIEAYKSGFEPPGDIEFEDYTQPMKRTVSDNSLSNSRGEGKPDLKFGGKSKGKLWPFIKKNKLMSLLTSPHQPPPPPPASASPSAVPNGPQSPKQQKEPLSHRFNEFMTSKPKIHCFRSLKRGLSLKLGATPEDFSNLPPEQRRKKLQQKVDELNKEIQKEMDQRDAITKMKDVYLKNPQMGDPASLDHKLAEVSQNIEKLRVETQKFEAWLAEVEGRLPARSEQARRQSGLYDSQNPPTVNNCAQDRESPDGSYTEEQSQESEMKVLATDFDDEFDDEEPLPAIGTCKALYTFEGQNEGTISVVEGETLYVIEEDKGDGWTRIRRNEDEEGYVPTSYVEVCLDKNAKDS

Variants of B1 are the subject of the assay. Particulars: with tnks1_human TNKS.
Regarding R515A, the “effect of a mutation on the interaction” value is “decreasing interaction”.
The value for R515A;D519A was “disrupting interaction”.
